{"source": "paper PMC10484666", "molecular_target": "IMP1 KH34 Y396F (Gallus gallus) (UniProt O42254)", "sequence (O42254 387-573 Y396F)": "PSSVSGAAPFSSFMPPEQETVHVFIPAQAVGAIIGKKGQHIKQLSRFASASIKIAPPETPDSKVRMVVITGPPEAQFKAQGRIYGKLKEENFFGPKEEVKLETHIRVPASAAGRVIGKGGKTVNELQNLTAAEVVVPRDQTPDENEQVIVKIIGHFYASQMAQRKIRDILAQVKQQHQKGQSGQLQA", "assay": "BLI", "details": "N6-methyladenosine at position 6; BLI: 10 mM Na2HPO4 pH 6.5, 50 mM NaCl, 1 mM TCEP, 2 mg/ml BSA, 0.005% Tween-20, 25 C; NMR: 80 uM protein, 37 C, NMR buffer not printed (protein in 10 mM …)"}
{"substance": "ACTB zipcode RNA, m6A", "values": [{"measurement": "Kd", "result": 3.7, "unit": "nM"}]}
